From patent US20250197505A1 (DREN BIO, published 2025)
Substitutions are numbered along the chain they refer to.

B1: ATX-130 hG1 (antibody, V domains shown)
VH: EVQLLESGGGLVKPGGSLRLSCAASGFTFSSYSMNWVRQAPGKGLEWVSSISTSSNFIYYADSVKGRFTISRDNAKNSLYLQMNSLRAEDTAVYYCARDLGRYYYYMDVWGKGTTVTVSS
VL: DIVMTQSPSSLSASVGDRVTITCRASQSISSWLAWYQQKPGKAPKSLIYAASSLQSGVPSKFSGSGSGTDFTLTISSLQPEDVATYYCQKYNSAPFTFGPGTKVDIK
notes: Human IgG1 form; also called ATX-130 human IgG1
B2: Ab.26 hG1 (antibody, V domains shown)
VH: B1 VH
VL: B1 VL with V3Q
notes: Human IgG1 form; also called Ab.26 human IgG1
B3: Ab.24 hG1 (antibody, V domains shown)
VH: B1 VH with N56S
VL: B1 VL
notes: Human IgG1 form; also called Ab.24 human IgG1
B4: Ab.32 hG1 (antibody, V domains shown)
VH: B1 VH
VL: B1 VL with V83F
notes: Human IgG1 form; also called Ab.32 human IgG1
B5: Ab.27 hG1 (antibody, V domains shown)
VH: B1 VH
VL: B1 VL with Y36F
notes: Human IgG1 form; also called Ab.27 human IgG1
B6: Ab.29 hG1 (antibody, V domains shown)
VH: B1 VH
VL: B1 VL with A43V
notes: Human IgG1 form; also called Ab.29 human IgG1
B7: Ab.22 hG1 (antibody, V domains shown)
VH: B1 VH with L5V
VL: B1 VL
notes: Human IgG1 form; also called Ab.22 human IgG1
B8: Ab.33 hG1 (antibody, V domains shown)
VH: B1 VH
VL: B1 VL with K90Q
notes: Human IgG1 form; also called Ab.33 human IgG1
B9: Ab.28 hG1 (antibody, V domains shown)
VH: B1 VH
VL: B1 VL with G41E
notes: Human IgG1 form; also called Ab.28 human IgG1
B10: Ab.34 hG1 (antibody, V domains shown)
VH: B1 VH
VL: B1 VL with A94Y
notes: Human IgG1 form; also called Ab.34 human IgG1
B11: Ab.31 hG1 (antibody, V domains shown)
VH: B1 VH
VL: B1 VL with K61R
notes: Human IgG1 form; also called Ab.31 human IgG1
B12: Ab.25 hG1 (antibody, V domains shown)
VH: B1 VH with F57Y
VL: B1 VL
notes: Human IgG1 form; VH cell printed as 'SEO ID NO: 32'; also called Ab.25 human IgG1
B13: ATX-130 Fab (Fab, V domains shown)
VH: B1 VH
VL: B1 VL
notes: Fab version
B14: Ab.32 Fab (Fab, V domains shown)
VH: B1 VH
VL: B1 VL with V83F
notes: Fab version
B15: Ab.24 Fab (Fab, V domains shown)
VH: B1 VH with N56S
VL: B1 VL
notes: Fab version
B16: Ab.31 Fab (Fab, V domains shown)
VH: B1 VH
VL: B1 VL with K61R
notes: Fab version
B17: Ab.25 Fab (Fab, V domains shown)
VH: B1 VH with F57Y
VL: B1 VL
notes: Fab version; VH cell printed as 'SEO ID NO: 32'
B18: Ab.28 Fab (Fab, V domains shown)
VH: B1 VH
VL: B1 VL with G41E
notes: Fab version
B19: Ab.34 Fab (Fab, V domains shown)
VH: B1 VH
VL: B1 VL with A94Y
notes: Fab version
B20: Ab.22 Fab (Fab, V domains shown)
VH: B1 VH with L5V
VL: B1 VL
notes: Fab version
B21: Ab.27 Fab (Fab, V domains shown)
VH: B1 VH
VL: B1 VL with Y36F
notes: Fab version
B22: Ab.29 Fab (Fab, V domains shown)
VH: B1 VH
VL: B1 VL with A43V
notes: Fab version
B23: Ab.26 Fab (Fab, V domains shown)
VH: B1 VH
VL: B1 VL with V3Q
notes: Fab version
B24: Ab.33 Fab (Fab, V domains shown)
VH: B1 VH
VL: B1 VL with K90Q
notes: Fab version
B25: 18H3-KIF (partially non-fucosylated human IgG1 18H3 produced in Expi-CHO cells with kifunensine) (antibody, V domains shown)
VH: EVQLVQSGAEVKKPGESLKISCKGSGYRFTSYWIGWVRQMPGKGLEWMGIIYPGDSDTRYSPSFQGQVIISADKSITTAFLQWSSLKASDTAMYYCARPFDYGGSPGYFDYWGQGTLVTVSS
VL: DIQMTQSPSTLSASVGDRVTITCRASQSIRSWLAWYQQKPGKAPKLLIYKASSLESGVPSRFSGSGSGTEFTLTISSLQPDDFATYYCQQYNTFWTFGQGTKVEIK

What follows are binders tested against T1, human CD94 expressed on cells (human primary NK cells in PBMCs; HEK cells expressing human CD94) (human, UniProt Q13241 1-179) (assay: flow cytometry, HEK cells expressing human CD94, average of 2 runs).
T1 construct: whole, on cells; also called KLRD1; Natural killer cells antigen CD94
T1 sequence (looked up): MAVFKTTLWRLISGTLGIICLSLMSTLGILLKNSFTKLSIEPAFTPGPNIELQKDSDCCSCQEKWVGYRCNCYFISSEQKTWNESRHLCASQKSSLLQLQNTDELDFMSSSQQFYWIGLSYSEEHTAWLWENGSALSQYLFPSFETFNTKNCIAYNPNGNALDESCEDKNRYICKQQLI
Method: (§1) Binding of the variant antibodies to HEK cells expressing human CD94 was also tested. Variants and ATX-130 antibodies were generated in human IgG1 form, and binding to HEK cells expressing human CD94 was assessed using flow cytometry. Experiments were run in duplicate, and the average EC50 of the 2 runs was calculated.

Point of comparison: B3, EC50 0.14 nM. Against it:
- B1 — within 1.5-fold, 0.12 nM
- B2 — the same, 0.14 nM
- B4 — within 1.5-fold, 0.12 nM
- B5 — 1.6-fold higher, 0.22 nM
- B6 — within 1.5-fold, 0.16 nM
- B7 — within 1.5-fold, 0.12 nM
- B8 — within 1.5-fold, 0.19 nM
- B9 — within 1.5-fold, 0.11 nM
- B10 — within 1.5-fold, 0.15 nM
- B11 — within 1.5-fold, 0.11 nM
- B12 — within 1.5-fold, 0.15 nM

What follows are binders tested against T2, human CD94 protein (human, UniProt Q13241 34-179, limits assumed) (assay: OCTET BLI, Fab on human CD94 protein).
T2 sequence (looked up): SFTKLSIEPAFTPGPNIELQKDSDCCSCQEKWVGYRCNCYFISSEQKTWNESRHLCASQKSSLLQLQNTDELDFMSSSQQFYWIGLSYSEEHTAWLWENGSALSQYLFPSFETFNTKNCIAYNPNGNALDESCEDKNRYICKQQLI

Point of comparison: B18, koff 0.00425 s⁻¹. Against it:
- B13 — within 1.5-fold, 0.0029 s⁻¹
- B14 — within 1.5-fold, 0.0031 s⁻¹
- B15 — 1.6-fold higher, 0.00695 s⁻¹
- B16 — within 1.5-fold, 0.00352 s⁻¹
- B17 — within 1.5-fold, 0.00387 s⁻¹
- B19 — within 1.5-fold, 0.00576 s⁻¹
- B20 — 1.8-fold lower, 0.00238 s⁻¹
- B21 — within 1.5-fold, 0.00421 s⁻¹
- B22 — within 1.5-fold, 0.00338 s⁻¹
- B23 — within 1.5-fold, 0.00446 s⁻¹
- B24 — within 1.5-fold, 0.00481 s⁻¹

These binders were tested against T1, human CD94 expressed on cells (human …) (assay: cell-based or functional assay).

For B25, the “IC50 of CLPD-NK leukemic cell depletion, ADCC assay with CLPD-NK patient PBMCs” value was 0.059 µg/mL.

For B25, the “IC50 of NK cell depletion, ADCC assay with healthy donor PBMCs” value was 0.02 µg/mL.

What follows are binders tested against T1, human CD94 expressed on cells (human …) (assay: flow cytometry, HEK cells expressing human CD94, 2nd run).
Method: as §1

Point of comparison: B3, EC50 0.13 nM. Against it:
- B1 — within 1.5-fold, 0.12 nM
- B2 — within 1.5-fold, 0.14 nM
- B4 — within 1.5-fold, 0.11 nM
- B5 — within 1.5-fold, 0.17 nM
- B6 — the same, 0.13 nM
- B7 — within 1.5-fold, 0.12 nM
- B8 — the same, 0.13 nM
- B9 — within 1.5-fold, 0.11 nM
- B10 — the same, 0.13 nM
- B11 — within 1.5-fold, 0.12 nM
- B12 — within 1.5-fold, 0.14 nM

Each binder was assayed against T1, human CD94 expressed on cells (human …) (assay: flow cytometry, HEK cells expressing human CD94, 1st run).
Method: as §1

Point of comparison: B7, EC50 0.12 nM. Against it:
- B1 — within 1.5-fold, 0.11 nM
- B2 — within 1.5-fold, 0.14 nM
- B3 — within 1.5-fold, 0.14 nM
- B4 — the same, 0.12 nM
- B5 — 2.2-fold higher, 0.26 nM
- B6 — 1.5-fold higher, 0.18 nM
- B8 — 2.1-fold higher, 0.25 nM
- B9 — within 1.5-fold, 0.11 nM
- B10 — within 1.5-fold, 0.16 nM
- B11 — within 1.5-fold, 0.1 nM
- B12 — within 1.5-fold, 0.15 nM
